The values below come from patent US20100310591A1 (published 2010).

Non-standard residues stand in square brackets, D forms with d. Ava = NCCCCC(=O)O

In this assay the target is murine class II MHC allele E^k on CH27 B cell lymphoma antigen presenting cells (murine). In words: cell-based or functional assay.

On to Ac-LRMKLPKSAKPIAYLKQATAK-NH2 [Hybrid 5, Ac-LRMKLPKSAKPIAYLKQATAK-NH2], for which the “T cell proliferative response (HT-2 [3H]TdR uptake) at 0.01 nM” value (“T cell proliferative response … at 0.01 nM” for short) was 14.3 thousands of cpm, the “T cell proliferative response (HT-2 [3H]TdR uptake) at 0.05 nM” value (“T cell proliferative response … at 0.05 nM” below) is 21.3 thousands of cpm, the “T cell proliferative response (HT-2 [3H]TdR uptake) at 0.18 nM” value (shortened to “T cell proliferative response … at 0.18 nM”) is 36.7 thousands of cpm and the “T cell proliferative response (HT-2 [3H]TdR uptake) at 0.73 nM” value (“T cell proliferative response … at 0.73 nM” for short) is 30.1 thousands of cpm. Also, the “T cell proliferative response (HT-2 [3H]TdR uptake) at 3 nM” value (“T cell proliferative response … at 3 nM” below) was 31.4 thousands of cpm, the “T cell proliferative response (HT-2 [3H]TdR uptake) at 12 nM” value (“T cell proliferative response … at 12 nM” below) was 44.6 thousands of cpm, the “T cell proliferative response (HT-2 [3H]TdR uptake) at 47 nM” value (“T cell proliferative response … at 47 nM” for short) was 26.2 thousands of cpm and the “T cell proliferative response (HT-2 [3H]TdR uptake) at 188 nM” value (from here on “T cell proliferative response … at 188 nM”) is 29.1 thousands of cpm. The “T cell proliferative response (HT-2 [3H]TdR uptake) at 750 nM” value (shortened to “T cell proliferative response … at 750 nM”) is 27.5 thousands of cpm and the “T cell proliferative response (HT-2 [3H]TdR uptake) at 3000 nM” value (“T cell proliferative response … at 3000 nM” below) is 27.3 thousands of cpm.
Ac-IAYLKQATAK-NH2 [Hybrid 1, Ac-IAYLKQATAK-NH2 (antigenic epitope PGCC 95-104 without Ii-Key)]: the “T cell proliferative response … at 0.01 nM” value is 0 thousands of cpm, the “T cell proliferative response … at 0.05 nM” value was 0 thousands of cpm, the “T cell proliferative response … at 0.18 nM” value is 0 thousands of cpm and the “T cell proliferative response … at 0.73 nM” value was 4 thousands of cpm. Further, the “T cell proliferative response … at 3 nM” value is 0.4 thousands of cpm, the “T cell proliferative response … at 12 nM” value is 10.9 thousands of cpm, the “T cell proliferative response … at 47 nM” value was 29.5 thousands of cpm and the “T cell proliferative response … at 188 nM” value was 32.4 thousands of cpm. Moreover, the “T cell proliferative response … at 750 nM” value is 27.8 thousands of cpm and the “T cell proliferative response … at 3000 nM” value is 25.2 thousands of cpm.
Consider Ac-LRMKLPKSIAYLKQATAK-NH2 [Hybrid 4, Ac-LRMKLPKSIAYLKQATAK-NH2], for which the “T cell proliferative response … at 0.01 nM” value was 2.5 thousands of cpm, the “T cell proliferative response … at 0.05 nM” value was 5.8 thousands of cpm, the “T cell proliferative response … at 0.18 nM” value was 9.1 thousands of cpm and the “T cell proliferative response … at 0.73 nM” value was 19.2 thousands of cpm. Further, the “T cell proliferative response … at 3 nM” value was 19 thousands of cpm, the “T cell proliferative response … at 12 nM” value is 23.1 thousands of cpm, the “T cell proliferative response … at 47 nM” value was 19.5 thousands of cpm and the “T cell proliferative response … at 188 nM” value was 20.8 thousands of cpm. Besides, the “T cell proliferative response … at 750 nM” value was 23.3 thousands of cpm and the “T cell proliferative response … at 3000 nM” value is 25.2 thousands of cpm.

B1: Hybrid 2, Ac-LRMK-ava-IAYLKQATAK-NH2 (peptide)
peptide: Ac-LRMK[Ava]IAYLKQATAK-NH2
SMILES: CC[C@H](C)[C@H](NC(=O)CCCCNC(=O)[C@H](CCCCN)NC(=O)[C@H](CCSC)NC(=O)[C@H](CCCNC(=N)N)NC(=O)[C@H](CC(C)C)NC(C)=O)C(=O)N[C@@H](C)C(=O)N[C@@H](Cc1ccc(O)cc1)C(=O)N[C@@H](CC(C)C)C(=O)N[C@@H](CCCCN)C(=O)N[C@@H](CCC(N)=O)C(=O)N[C@@H](C)C(=O)N[C@H](C(=O)N[C@@H](C)C(=O)N[C@@H](CCCCN)C(N)=O)[C@@H](C)O
Regarding B1, the “T cell proliferative response … at 0.01 nM” value was 3.4 thousands of cpm, the “T cell proliferative response … at 0.05 nM” value was 19.8 thousands of cpm, the “T cell proliferative response … at 0.18 nM” value was 31.2 thousands of cpm and the “T cell proliferative response … at 0.73 nM” value is 38.8 thousands of cpm. The “T cell proliferative response … at 3 nM” value is 30.1 thousands of cpm, the “T cell proliferative response … at 12 nM” value is 21.9 thousands of cpm, the “T cell proliferative response … at 47 nM” value is 20.8 thousands of cpm and the “T cell proliferative response … at 188 nM” value was 27.2 thousands of cpm. Moreover, the “T cell proliferative response … at 750 nM” value was 23.9 thousands of cpm and the “T cell proliferative response … at 3000 nM” value was 25.1 thousands of cpm.
Take Ac-LRMKLPKSAKPVSKIAYLKQATAK-NH2 [Hybrid 6, Ac-LRMKLPKSAKPVSKIAYLKQATAK-NH2]: the “T cell proliferative response … at 0.01 nM” value is 2.9 thousands of cpm, the “T cell proliferative response … at 0.05 nM” value was 2.4 thousands of cpm, the “T cell proliferative response … at 0.18 nM” value was 11.9 thousands of cpm and the “T cell proliferative response … at 0.73 nM” value is 28.7 thousands of cpm. In addition, the “T cell proliferative response … at 3 nM” value was 31.4 thousands of cpm, the “T cell proliferative response … at 12 nM” value is 39.2 thousands of cpm, the “T cell proliferative response … at 47 nM” value is 25.3 thousands of cpm and the “T cell proliferative response … at 188 nM” value is 26.9 thousands of cpm. For the same molecule, the “T cell proliferative response … at 750 nM” value is 23.4 thousands of cpm and the “T cell proliferative response … at 3000 nM” value was 21.5 thousands of cpm.

B2: Hybrid 3, Ac-LRMK-ava-ava-IAYLKQATAK-NH2 (peptide)
peptide: Ac-LRMK[Ava][Ava]IAYLKQATAK-NH2
SMILES: CC[C@H](C)[C@H](NC(=O)CCCCNC(=O)CCCCNC(=O)[C@H](CCCCN)NC(=O)[C@H](CCSC)NC(=O)[C@H](CCCNC(=N)N)NC(=O)[C@H](CC(C)C)NC(C)=O)C(=O)N[C@@H](C)C(=O)N[C@@H](Cc1ccc(O)cc1)C(=O)N[C@@H](CC(C)C)C(=O)N[C@@H](CCCCN)C(=O)N[C@@H](CCC(N)=O)C(=O)N[C@@H](C)C(=O)N[C@H](C(=O)N[C@@H](C)C(=O)N[C@@H](CCCCN)C(N)=O)[C@@H](C)O
As to B2, the “T cell proliferative response … at 0.01 nM” value is 0.6 thousands of cpm, the “T cell proliferative response … at 0.05 nM” value is 5.3 thousands of cpm, the “T cell proliferative response … at 0.18 nM” value is 21.6 thousands of cpm and the “T cell proliferative response … at 0.73 nM” value was 22.3 thousands of cpm. In addition, the “T cell proliferative response … at 3 nM” value is 27.9 thousands of cpm, the “T cell proliferative response … at 12 nM” value is 29.5 thousands of cpm, the “T cell proliferative response … at 47 nM” value was 26.2 thousands of cpm and the “T cell proliferative response … at 188 nM” value was 26.2 thousands of cpm. The “T cell proliferative response … at 750 nM” value is 31.7 thousands of cpm and the “T cell proliferative response … at 3000 nM” value is 31.9 thousands of cpm.
